Results from patent US20170340735A1 (published 2017).
Numbering of substitutions follows the chain as printed.

Tests used:
human PVRL4-His = molecular target: T1, human PVRL4-His (human, UniProt Q96NY8 32-349); assay: BLI, antibody on AHC sensor, human PVRL4-His in solution
T1 construct: also called Nectin-4; not shown: His tag
T1 sequence (looked up): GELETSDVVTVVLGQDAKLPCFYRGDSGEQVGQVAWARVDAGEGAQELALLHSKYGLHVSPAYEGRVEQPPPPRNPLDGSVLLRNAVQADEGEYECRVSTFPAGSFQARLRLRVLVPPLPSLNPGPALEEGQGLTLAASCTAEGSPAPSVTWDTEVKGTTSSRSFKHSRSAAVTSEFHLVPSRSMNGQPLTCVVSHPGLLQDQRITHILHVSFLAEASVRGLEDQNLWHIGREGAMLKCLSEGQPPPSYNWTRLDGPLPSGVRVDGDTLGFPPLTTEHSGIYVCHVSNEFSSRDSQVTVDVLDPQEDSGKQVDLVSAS
Procedure: The BLI analysis was performed at 30° C. using 1× kinetics buffer as assay buffer. AHC sensors were first presoaked in assay buffer for greater than 5 minutes. Antibody (5 μg/mL) was captured on the sensor for 300 seconds. Sensors were then dipped in assay buffer for 120 seconds to establish a baseline before measuring binding to human PVRL4-His protein. Sensors were then dipped into human PVRL4-His (200 nM in assay buffer) for 200 seconds to measure association. Dissociation of PVRL4 was then measured by dipping sensors into assay buffer for 200 seconds. Results were analyzed using Octet® Data Analysis Software Version 8.2.0.7.

[1] = molecular target: T2, human TIGIT on the cell surface (human, UniProt Q495A1 22-244); assay: flow cytometry, antibody titrated against labeled PVR-Fc binding to human TIGIT Jurkat cells
T2 construct: Expressed on engineered Jurkat cells or naturally on human primary CD8+ T cells (the cells are named under assay); also called Human TIGIT Jurkat; human TIGIT expressing Jurkat cells
T2 sequence: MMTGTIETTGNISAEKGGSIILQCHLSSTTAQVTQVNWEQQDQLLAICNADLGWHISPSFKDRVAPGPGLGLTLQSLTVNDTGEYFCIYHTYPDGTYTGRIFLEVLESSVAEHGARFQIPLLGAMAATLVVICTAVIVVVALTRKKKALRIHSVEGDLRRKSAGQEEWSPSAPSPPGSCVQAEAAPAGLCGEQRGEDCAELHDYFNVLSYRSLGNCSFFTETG
Procedure: (§1) Quantitative ligand blocking studies were conducted by using a cell surface TIGIT binding assay.

[2] = molecular target: T3, recombinant monomeric human TIGIT-His (human, UniProt Q495A1 22-141); assay: MSD-SET solution equilibrium titration, monomeric antigen
T3 construct: also called hTIGIT; not shown: His tag
T3 sequence: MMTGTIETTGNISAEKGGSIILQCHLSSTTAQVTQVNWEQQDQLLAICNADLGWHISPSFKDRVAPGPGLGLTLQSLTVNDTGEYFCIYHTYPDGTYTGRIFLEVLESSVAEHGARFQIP
Procedure: (§2) See Estep et al., supra, incorporated by reference in its entirety. Briefly, solution equilibrium titrations (SET) were performed in PBS+0.1% IgG-Free BSA (PBSF) with antigen (TIGIT monomer) held constant at 10-100 pM and incubated with 3- to 5-fold serial dilutions of Fab or mAbs starting at 10 pM-10 nM. Antibodies (20 nM in PBS) were coated onto standard bind MSD-ECL plates overnight at 4° C. or at room temperature for 30 min. Plates were then blocked by BSA for 30 min with shaking at 700 rpm, followed by three washes with wash buffer (PBSF+0.05% Tween 20). SET samples were applied and incubated on the plates for 150s with shaking at 700 rpm followed by one wash. Antigen captured on a plate was detected with 250 ng/mL sulfotag-labeled streptavidin in PBSF by incubation on the plate for 3 min. The plates were washed three times with wash buffer and then read on the MSD Sector Imager 2400 instrument using 1× Read Buffer T with surfactant. The percent free antigen was plotted as a function of titrated antibody in Prism and fit to a quadratic equation to extract the KD. To improve throughput, liquid handling robots were used throughout MSD-SET experiments, including SET sample preparation.

[3] = molecular target: T4, recombinant monomeric cynomolgus monkey TIGIT-His (cynomolgus monkey); assay: as above
T4 construct: also called Cyno TIGIT His; cTIGIT; not shown: His tag
Procedure: as §2

[4] = molecular target: T2, human TIGIT on the cell surface; assay: flow cytometry, antibody titrated against labeled PVRL2-Fc binding to human TIGIT Jurkat cells
Procedure: as §1

[5] = molecular target: T2, human TIGIT on the cell surface; assay: cell-based or functional assay
[6] = molecular target: T3, recombinant monomeric human TIGIT-His; assay: BLI (ForteBio), IgG on AHQ sensor, 100 nM monomeric antigen, 1:1 model
Procedure: (§3) Quantitative binding of antibodies to recombinant monomeric human, mouse (SEQ ID NO: 3), cynomolgus monkey TIGIT was measured using biolayer interferometry (BLI) with a FORTEBIO®. […] FORTEBIO affinity measurements were performed by loading IgGs on-line onto AHQ sensors. Sensors were equilibrated off-line in assay buffer for 30 min and then monitored on-line for 60 seconds for baseline establishment. Sensors with loaded IgGs were exposed to a single concentration of antigen (100 nM) for 3 minutes. Afterwards they were transferred to assay buffer for 3 minutes for off-rate measurement. Kinetics were analyzed using the 1:1 binding model.

[7] = molecular target: T4, recombinant monomeric cynomolgus monkey …; assay: as above
Procedure: as §3

[8] = molecular target: T3, recombinant monomeric human TIGIT-His; assay: BLI (Octet QKe), antibody on AHC sensor, several concentrations of human TIGIT-His, 1:1 global fit, average
Procedure: A strategy of capturing anti-TIGIT antibodies on sensors following association/dissociation of monomeric TIGIT proteins was used to avoid avidity effects in the assay. The BLI analysis was performed at 29° C. using 1× kinetics buffer (ForteBio) as assay buffer. Anti-human IgG Fc capture (AHC) biosensors (ForteBio) were first presoaked in assay buffer for over five minutes. Anti-TIGIT antibody (5 μg/mL) was captured on the sensor for 300 seconds. Sensors were then dipped in assay buffer for 120 seconds to establish a baseline before measuring binding to each TIGIT protein. […] Dissociation of TIGIT was measured by dipping the sensors into assay buffer for 600, 1200, or 1800 seconds, depending on the experiment (600 seconds was only used for mouse TIGIT-His). Agitation at all steps was 1000 rpm.
Kinetic parameters were generated with Octet® Data Analysis Software Version 8.2.0.7 using reference subtraction, dissociation based inter-step correction, 1-to-1 binding model, and global fit (Rₘₐₓ unlinked by sensor).

T4 sequence (chain, as listed by the source limits assumed): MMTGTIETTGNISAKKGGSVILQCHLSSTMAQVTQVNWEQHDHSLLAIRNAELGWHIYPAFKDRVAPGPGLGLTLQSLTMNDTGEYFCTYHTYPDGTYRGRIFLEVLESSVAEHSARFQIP

B1: MAB3-IgG4 (antibody, V domains shown)
VH: QLQLQESGPGLVKPSETLSLTCTVSGGSISSTSHYWGWIRQPPGKGLEWIGSIYYSGSTFYNPSLKSRVTISVDTSKNQFSLKLSSVTAADTAVYYCARDANYYGSAWAFDPWGQGTLVTVSS
VL: EIVLTQSPATLSLSPGERATLSCRASQSVSSYLAWYQQKPGQAPRLLIYDASNRATGIPARFSGSGSGTDFTLTISSLEPEDFAVYYCQQHFNLPTFGGGTKVEIKR
With B1 the binding result (human PVRL4-His) was “no binding (tested: 200 nM)”, the IC50 [1] was 1.6 nM and the Kd [2] was 0.0081 nM. The Kd [3] was 0.035 nM, the IC50 [4] was 1.2 nM and the “Average EC50, IL-2 production, human TIGIT Jurkat/anti-CD3 HT-1080 co-culture assay” value [5] was 0.33 nM. For the same binder, the Kd [6] was 0.332 nM and the Kd [7] was 0.802 nM.

B2: MAB18-IgG4 (antibody, V domains shown)
VH: QVQLVQSGAEVKKPGASVKVSCKASGYTFPAYYMHWVRQAPGQGLEWMGIINPSLGLTSYARKFQGRVTMTRDTSTSTVYMELSSLRSEDTAVYYCARGGRTTWIGAFDIWGQGTMVTVSS
VL: EIVMTQSPATLSVSPGERATLSCRASQSVSSNLAWYQQKPGQAPRLLIYGASTRATGIPARFSGSGSGTEFTLTISSLQSEDFAVYYCQQYVVWPPLTFGGGTKVEIKR
For B2, the binding result (human PVRL4-His) was “no binding (tested: 200 nM)”, the IC50 [1] was 1.8 nM and the IC50 [4] was 1.9 nM. The Kd [8] was 0.81 nM, the koff [8] was 0.00059 s⁻¹ and the kon [8] was 750000 M⁻¹ s⁻¹. The “Average EC50, IL-2 production, human TIGIT Jurkat/anti-CD3 HT-1080 co-culture assay” value [5] was 0.25 nM, the Kd [6] was 0.448 nM and the Kd [7] was 72 nM.

B3: MAB13-IgG4 (antibody, V domains shown)
VH: B2 VH with P30G, A31N, R62Q
VL: B2 VL
With B3 the binding result (human PVRL4-His) was “no binding (tested: 200 nM)”, the IC50 [1] was 2.1 nM and the Kd [2] was 0.4 nM. The IC50 [4] was 1.8 nM, the “Average EC50, IL-2 production, human TIGIT Jurkat/anti-CD3 HT-1080 co-culture assay” value [5] was 1.4 nM and the Kd [6] was 1.44 nM.

B4: MAB14-IgG4 (antibody, V domains shown)
VH: B2 VH with R62Q
VL: B2 VL
B4 was tested, and the binding result (human PVRL4-His) was “no binding (tested: 200 nM)”, the IC50 [1] was 2.6 nM and the Kd [2] was 0.38 nM. For the same binder, the IC50 [4] was 1.6 nM, the “Average EC50, IL-2 production, human TIGIT Jurkat/anti-CD3 HT-1080 co-culture assay” value [5] was 0.71 nM and the Kd [6] was 1.23 nM.

B5: MAB15-IgG4 (antibody, V domains shown)
VH: B2 VH with P30R, A31E, L55I
VL: B2 VL
In the case of B5, the binding result (human PVRL4-His) is reported as “no binding (tested: 200 nM)”, the IC50 [1] is reported as 2.2 nM and the Kd [2] is reported as 0.21 nM. The IC50 [4] was 1.1 nM, the Kd [8] was 0.58 nM and the koff [8] was 0.00066 s⁻¹. For the same binder, the kon [8] was 1.1e+06 M⁻¹ s⁻¹, the “Average EC50, IL-2 production, human TIGIT Jurkat/anti-CD3 HT-1080 co-culture assay” value [5] was 0.21 nM and the Kd [6] was 0.526 nM. It also gave a Kd [7] of 79.4 nM.

B6: MAB16-IgG4 (antibody, V domains shown)
VH: B2 VH with P30R, A31E, L55I, F108L
VL: B2 VL
With B6 the binding result (human PVRL4-His) was “no binding (tested: 200 nM)”, the IC50 [1] was 2.1 nM and the Kd [2] was 0.07 nM. It also gave an IC50 [4] of 1.3 nM, a Kd [8] of 1.1 nM and a koff [8] of 0.00035 s⁻¹. For the same binder, the kon [8] was 450000 M⁻¹ s⁻¹, the “Average EC50, IL-2 production, human TIGIT Jurkat/anti-CD3 HT-1080 co-culture assay” value [5] was 1.11 nM and the Kd [6] was 0.378 nM. The Kd [7] was 70.4 nM.

B7: MAB17-IgG4 (antibody, V domains shown)
VH: B2 VH with M34I, F108L
VL: B2 VL
B7 was tested, and the binding result (human PVRL4-His) was “no binding (tested: 200 nM)”, the IC50 [1] was 2.6 nM and the Kd [2] was 0.041 nM. For the same binder, the IC50 [4] was 1.9 nM, the “Average EC50, IL-2 production, human TIGIT Jurkat/anti-CD3 HT-1080 co-culture assay” value [5] was 0.13 nM and the Kd [6] was 0.429 nM. For the same binder, the Kd [7] was 110 nM.

B8: MAB19-IgG4 (antibody, V domains shown)
VH: QVQLVQSGAEVKKPGASVKVSCKASGYTFTSHYMGWVRQAPGQGLEWMGVINPSMGATSYAQKFQGRVTMTRDTSTSTVYMELSSLRSEDTAVYYCARLHVSGSYYPAYLDYWGQGTMVTVSS
VL: EIVMTQSPATLSVSPGERATLSCRASQSVSSNLAWYQQKPGQAPRHLIYGASTRATGIPARFSGSGSGTEFTLTISSLQSEDFAVYYCQQYIVFPWTFGGGTKVEIKR
With B8 the binding result (human PVRL4-His) was “no binding (tested: 200 nM)”, the IC50 [1] was 6.4 nM and the IC50 [4] was 2 nM. For the same binder, the “Average EC50, IL-2 production, human TIGIT Jurkat/anti-CD3 HT-1080 co-culture assay” value [5] was 0.2 nM.

B9: MAB20-IgG4 (antibody, V domains shown)
VH: B8 VH with M48V, V50I
VL: B8 VL
With B9 the binding result (human PVRL4-His) was “no binding (tested: 200 nM)”, the IC50 [1] was 2.3 nM and the Kd [2] was 0.03 nM. For the same binder, the IC50 [4] was 1.9 nM, the Kd [8] was 0.46 nM and the koff [8] was 0.00038 s⁻¹. The kon [8] was 890000 M⁻¹ s⁻¹ and the “Average EC50, IL-2 production, human TIGIT Jurkat/anti-CD3 HT-1080 co-culture assay” value [5] was 0.68 nM.

B10: MAB21-IgG4 (antibody, V domains shown)
VH: B8 VH with V50I, A61T, Q65R
VL: B8 VL
For B10, the binding result (human PVRL4-His) was “no binding (tested: 200 nM)”, the IC50 [1] was 1 nM and the Kd [2] was 0.08 nM. For the same binder, the IC50 [4] was 0.8 nM, the Kd [8] was 0.36 nM and the koff [8] was 0.0005 s⁻¹. For the same binder, the kon [8] was 1.4e+06 M⁻¹ s⁻¹ and the “Average EC50, IL-2 production, human TIGIT Jurkat/anti-CD3 HT-1080 co-culture assay” value [5] was 0.61 nM.

B11: SEC1 (format not stated) (antibody, V domains shown)
VH: EVQLVESGGGLTQPGKSLKLSCEASGFTFSSFTMHWVRQSPGKGLEWVAFIRSGSGIVFYADAVRGRFTISRDNAKNLLFLQMNDLKSEDTAMYYCARRPLGHNTFDSWGQGTLVTVSS
VL: DIVMTQSPSSLAVSPGEKVTMTCKSSQSLYYSGVKENLLAWYQQKPGQSPKLLIYYASIRFTGVPDRFTGSGSGTDYTLTITSVQAEDMGQYFCQQGINNPLTFGDGTKLEIK
B11 was tested, and the “Average EC50, IL-2 production, human TIGIT Jurkat/anti-CD3 HT-1080 co-culture assay” value [5] was 8.46 nM.
